Assay results: article PMC5110118

Target: C-terminal NanoLuc luciferase fragment, residues 66–171 (66C), bacterial construct
Assay: split reporter

N-terminal NanoLuc luciferase fragment, residues 1–65 (N65), bacterial construct (domain or fragment)
fold increase in luminescence over 66C alone: 10 fold
